This is an account of results in US20060210984A1.

The target of assay [1] is IFN-γ (human) (UniProt P01579). In words: sandwich microarray in flow cell, chemiluminescence, cytokine 1 ng/ml, divided by chip-specific PNA calibration factor; Chip 4.
Assay [2] has as its target IFN-γ (human) (UniProt P01579). Kind of assay: sandwich microarray in flow cell, chemiluminescence, cytokine 1 ng/ml; Chip 1.
The target in assay [3] is IFN-γ (human) (UniProt P01579). Kind of assay: sandwich microarray in flow cell, chemiluminescence, cytokine 1 ng/ml, divided by chip-specific PNA calibration factor; Chip 1.
Assay [4] concerns the target IFN-γ (human) (UniProt P01579). In words: sandwich microarray in flow cell, chemiluminescence, cytokine 1 ng/ml; Chip 3.
Assay [5] concerns the target IFN-γ (human) (UniProt P01579). Kind of assay: sandwich microarray in flow cell, chemiluminescence, cytokine 1 ng/ml, divided by chip-specific PNA calibration factor; Chip 5.
The target in assay [6] is IFN-γ (human) (UniProt P01579). Kind of assay: sandwich microarray in flow cell, chemiluminescence, cytokine 1 ng/ml; AVG of Chips 1-5.
Assay [7] addresses IFN-γ (human) (UniProt P01579). In words: sandwich microarray in flow cell, chemiluminescence, cytokine 1 ng/ml; Chip 5.
The target in assay [8] is IFN-γ (human) (UniProt P01579). In words: sandwich microarray in flow cell, chemiluminescence, cytokine 1 ng/ml; Chip 2.
Assay [9] has as its target IFN-γ (human) (UniProt P01579). Kind of assay: sandwich microarray in flow cell, chemiluminescence, cytokine 1 ng/ml, divided by chip-specific PNA calibration factor; Chip 3.
Assay [10] concerns the target IFN-γ (human) (UniProt P01579). Kind of assay: sandwich microarray in flow cell, chemiluminescence, cytokine 1 ng/ml, divided by chip-specific PNA calibration factor; AVG of Chips 1-5.
In assay [11] the target is IFN-γ (human) (UniProt P01579). In words: sandwich microarray in flow cell, chemiluminescence, cytokine 1 ng/ml; Chip 4.
In assay [12] the target is IFN-γ (human) (UniProt P01579). In words: sandwich microarray in flow cell, chemiluminescence, cytokine 1 ng/ml, divided by chip-specific PNA calibration factor; Chip 2.
The target of assay [13] is IL-1a (human) (UniProt P01583). Kind of assay: sandwich microarray in flow cell, chemiluminescence, cytokine 1 ng/ml, divided by chip-specific PNA calibration factor; Chip 4.
Assay [14] concerns the target IL-1a (human) (UniProt P01583). Kind of assay: sandwich microarray in flow cell, chemiluminescence, cytokine 1 ng/ml; Chip 1.
Assay [15] concerns the target IL-1a (human) (UniProt P01583). In words: sandwich microarray in flow cell, chemiluminescence, cytokine 1 ng/ml, divided by chip-specific PNA calibration factor; Chip 1.
For assay [16], the target named is IL-1a (human) (UniProt P01583). Kind of assay: sandwich microarray in flow cell, chemiluminescence, cytokine 1 ng/ml; Chip 3.
Assay [17] concerns the target IL-1a (human) (UniProt P01583). In words: sandwich microarray in flow cell, chemiluminescence, cytokine 1 ng/ml, divided by chip-specific PNA calibration factor; Chip 5.
Assay [18] deals with IL-1a (human) (UniProt P01583). In words: sandwich microarray in flow cell, chemiluminescence, cytokine 1 ng/ml; AVG of Chips 1-5.
The target in assay [19] is IL-1a (human) (UniProt P01583). In words: sandwich microarray in flow cell, chemiluminescence, cytokine 1 ng/ml; Chip 5.
Assay [20] addresses IL-1a (human) (UniProt P01583). Kind of assay: sandwich microarray in flow cell, chemiluminescence, cytokine 1 ng/ml; Chip 2.
The target of assay [21] is IL-1a (human) (UniProt P01583). Kind of assay: sandwich microarray in flow cell, chemiluminescence, cytokine 1 ng/ml, divided by chip-specific PNA calibration factor; Chip 3.
Assay [22] deals with IL-1a (human) (UniProt P01583). Kind of assay: sandwich microarray in flow cell, chemiluminescence, cytokine 1 ng/ml, divided by chip-specific PNA calibration factor; AVG of Chips 1-5.
Assay [23] deals with IL-1a (human) (UniProt P01583). In words: sandwich microarray in flow cell, chemiluminescence, cytokine 1 ng/ml; Chip 4.
Assay [24] has as its target IL-1a (human) (UniProt P01583). In words: sandwich microarray in flow cell, chemiluminescence, cytokine 1 ng/ml, divided by chip-specific PNA calibration factor; Chip 2.
Assay [25] has as its target IL-2 (human) (UniProt P60568). Kind of assay: sandwich microarray in flow cell, chemiluminescence, cytokine 1 ng/ml, divided by chip-specific PNA calibration factor; Chip 4.
Assay [26] concerns the target IL-2 (human) (UniProt P60568). Kind of assay: sandwich microarray in flow cell, chemiluminescence, cytokine 1 ng/ml; Chip 1.
Assay [27] deals with IL-2 (human) (UniProt P60568). In words: sandwich microarray in flow cell, chemiluminescence, cytokine 1 ng/ml, divided by chip-specific PNA calibration factor; Chip 1.
In assay [28] the target is IL-2 (human) (UniProt P60568). In words: sandwich microarray in flow cell, chemiluminescence, cytokine 1 ng/ml; Chip 3.
For assay [29], the target named is IL-2 (human) (UniProt P60568). In words: sandwich microarray in flow cell, chemiluminescence, cytokine 1 ng/ml, divided by chip-specific PNA calibration factor; Chip 5.
For assay [30], the target named is IL-2 (human) (UniProt P60568). In words: sandwich microarray in flow cell, chemiluminescence, cytokine 1 ng/ml; AVG of Chips 1-5.
Assay [31] concerns the target IL-2 (human) (UniProt P60568). In words: sandwich microarray in flow cell, chemiluminescence, cytokine 1 ng/ml; Chip 5.
For assay [32], the target named is IL-2 (human) (UniProt P60568). In words: sandwich microarray in flow cell, chemiluminescence, cytokine 1 ng/ml; Chip 2.
Assay [33] addresses IL-2 (human) (UniProt P60568). Kind of assay: sandwich microarray in flow cell, chemiluminescence, cytokine 1 ng/ml, divided by chip-specific PNA calibration factor; Chip 3.
The target in assay [34] is IL-2 (human) (UniProt P60568). Kind of assay: sandwich microarray in flow cell, chemiluminescence, cytokine 1 ng/ml, divided by chip-specific PNA calibration factor; AVG of Chips 1-5.
Assay [35] has as its target IL-2 (human) (UniProt P60568). In words: sandwich microarray in flow cell, chemiluminescence, cytokine 1 ng/ml; Chip 4.
Assay [36] concerns the target IL-2 (human) (UniProt P60568). Kind of assay: sandwich microarray in flow cell, chemiluminescence, cytokine 1 ng/ml, divided by chip-specific PNA calibration factor; Chip 2.
Assay [37] deals with IL-12p70 (human) (UniProt P29459). Kind of assay: sandwich microarray in flow cell, chemiluminescence, cytokine 1 ng/ml, divided by chip-specific PNA calibration factor; Chip 4.
Assay [38] has the same target. In words: sandwich microarray in flow cell, chemiluminescence, cytokine 1 ng/ml; Chip 1.
The target is the same in assay [39]. In words: sandwich microarray in flow cell, chemiluminescence, cytokine 1 ng/ml, divided by chip-specific PNA calibration factor; Chip 1.
Assay [40] shares this target. In words: sandwich microarray in flow cell, chemiluminescence, cytokine 1 ng/ml; Chip 3.
Assay [41] shares this target. Kind of assay: sandwich microarray in flow cell, chemiluminescence, cytokine 1 ng/ml, divided by chip-specific PNA calibration factor; Chip 5.
Assay [42] shares this target. Kind of assay: sandwich microarray in flow cell, chemiluminescence, cytokine 1 ng/ml; AVG of Chips 1-5.
For assay [43] the target is unchanged. Kind of assay: sandwich microarray in flow cell, chemiluminescence, cytokine 1 ng/ml; Chip 5.
Assay [44] shares this target. In words: sandwich microarray in flow cell, chemiluminescence, cytokine 1 ng/ml; Chip 2.
Assay [45] has the same target. In words: sandwich microarray in flow cell, chemiluminescence, cytokine 1 ng/ml, divided by chip-specific PNA calibration factor; Chip 3.
Assay [46] has the same target. Kind of assay: sandwich microarray in flow cell, chemiluminescence, cytokine 1 ng/ml, divided by chip-specific PNA calibration factor; AVG of Chips 1-5.
Assay [47] has the same target. Kind of assay: sandwich microarray in flow cell, chemiluminescence, cytokine 1 ng/ml; Chip 4.
Assay [48] has the same target. In words: sandwich microarray in flow cell, chemiluminescence, cytokine 1 ng/ml, divided by chip-specific PNA calibration factor; Chip 2.

UniProt P01579, sequence (P01579 24-166 limits assumed): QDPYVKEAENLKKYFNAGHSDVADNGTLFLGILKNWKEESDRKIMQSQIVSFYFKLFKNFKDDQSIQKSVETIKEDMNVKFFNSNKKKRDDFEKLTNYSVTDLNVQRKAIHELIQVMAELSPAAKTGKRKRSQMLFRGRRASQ
UniProt P01583, sequence (P01583 113-271 limits assumed): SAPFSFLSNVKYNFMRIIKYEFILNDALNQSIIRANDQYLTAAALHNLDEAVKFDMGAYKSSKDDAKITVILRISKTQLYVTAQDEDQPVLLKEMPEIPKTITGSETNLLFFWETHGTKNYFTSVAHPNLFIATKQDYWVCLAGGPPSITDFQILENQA
UniProt P29459, sequence (P29459 23-219 limits assumed, chain 1 of 2): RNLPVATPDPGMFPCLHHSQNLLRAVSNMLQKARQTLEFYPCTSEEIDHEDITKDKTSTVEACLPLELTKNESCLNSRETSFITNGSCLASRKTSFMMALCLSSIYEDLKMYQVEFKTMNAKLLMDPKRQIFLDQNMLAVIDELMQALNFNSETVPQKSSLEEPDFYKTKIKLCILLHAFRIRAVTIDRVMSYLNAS
UniProt P29459, sequence (P29460 23-328 limits assumed, chain 2 of 2, further chain): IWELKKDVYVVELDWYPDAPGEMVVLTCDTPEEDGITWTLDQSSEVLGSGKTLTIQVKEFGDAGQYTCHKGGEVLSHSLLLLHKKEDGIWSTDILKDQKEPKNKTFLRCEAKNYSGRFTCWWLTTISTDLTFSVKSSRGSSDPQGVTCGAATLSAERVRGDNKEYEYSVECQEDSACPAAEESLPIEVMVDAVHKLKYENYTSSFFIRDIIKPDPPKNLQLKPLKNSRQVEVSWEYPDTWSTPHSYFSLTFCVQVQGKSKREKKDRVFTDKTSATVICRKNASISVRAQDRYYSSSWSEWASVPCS
UniProt P60568, sequence (P60568 21-153 limits assumed): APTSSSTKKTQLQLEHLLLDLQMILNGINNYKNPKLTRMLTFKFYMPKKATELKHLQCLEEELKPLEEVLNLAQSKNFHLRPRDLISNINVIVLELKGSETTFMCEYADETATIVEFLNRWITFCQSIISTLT

For “MAb IFN-g (monoclonal capture antibody of the anti-human IFN-γ OptEIA matched pair, BD Biosciences-Pharmingen)”, the chemiluminescent spot intensity (Calibrated Data) is 4.39 in assay [1]; 0 in assay [3]; 0 in assay [5]; 10 in assay [9]; 2.88 in [10]; 0 in [12]. The chemiluminescent spot intensity (Un-Calibrated Data) in [2] was determined as 0; in assay [4] it was 10; in assay [6], 2.4; in [7], 0; in [8] it was 0; in assay [11], 2.
On to “MAb IL-1a (monoclonal capture antibody of the anti-human IL-1a OptEIA matched pair, BD Biosciences-Pharmingen)”, for which the chemiluminescent spot intensity (Calibrated Data) stood at 301 in assay [13]; 293 in assay [15]; 373 in assay [17]; 312 in assay [21]; 321 in [22]; 325 in assay [24]. Also, the chemiluminescent spot intensity (Un-Calibrated Data) in [14] worked out at 175; in [16], 312; in assay [18], 168; in assay [19], 121; in assay [20] it was 95; in assay [23] it was 137.
With “MAb IL-2 (monoclonal capture antibody of the anti-human IL-2 OptEIA matched pair, BD Biosciences-Pharmingen)”, the chemiluminescent spot intensity (Calibrated Data) in assay [25] stood at 430; in assay [27], 421; in assay [29] it was 389; in assay [33], 441; in assay [34] it was 423; in assay [36], 434. In addition, the chemiluminescent spot intensity (Un-Calibrated Data) was determined as 251 in assay [26]; 441 in assay [28]; 228 in assay [30]; 126 in assay [31]; 127 in [32]; 196 in [35].
For the substance “MAb IL-12 p70 (monoclonal capture antibody of the anti-human IL-12p70 OptEIA matched pair, BD Biosciences-Pharmingen)”, the chemiluminescent spot intensity (Calibrated Data) in assay [37] is 872; in [39], 929; in assay [41], 888; in assay [45] it was 956; in [46], 903; in assay [48] it was 872. For the same substance, the chemiluminescent spot intensity (Un-Calibrated Data) in assay [38] came out at 554; in assay [40], 956; in [42] it was 490; in [43] it was 288; in assay [44], 255; in assay [47], 397.
